{"source": "paper PMC11861601", "about": "“Multitarget mechanism of MYC inhibition by the bacterial lon protease in disease” (Scientific Reports, 2025)", "binders": {"B1": {"name": "His-tagged full-length N-MYC (natural protein, human, UniProt P04198 1-464, looked up)", "chain": "MPSCSTSTMPGMICKNPDLEFDSLQPCFYPDEDDFYFGGPDSTPPGEDIWKKFELLPTPPLSPSRGFAEHSSEPPSWVTEMLLENELWGSPAEEDAFGLGGLGGLTPNPVILQDCMWSGFSAREKLERAVSEKLQHGRGPPTAGSTAQSPGAGAASPAGRGHGGAAGAGRAGAALPAELAHPAAECVDPAVVFPFPVNKREPAPVPAAPASAPAAGPAVASGAGIAAPAGAPGVAPPRPGGRQTSGGDHKALSTSGEDTLSDSDDEDDEEEDEEEEIDVVTVEKRRSSSNTKAVTTFTITVRPKNAALGPGRAQSSELILKRCLPIHQQHNYAAPSPYVESEDAPPQKKIKSEASPRPLKSVIPPKAKSLSPRNSDSEDSERRRNHNILERQRRNDLRSSFLTLRDHVPELVKNEKAAKVVILKKATEYVHSLQAEEHQLLLEKEKLQARQQQLLKKIEHARTC", "notes": "N-MYC, human, full length; source: bought: Signalway (SAB Signalway Antibody), Cat# AP72694"}}, "test_in_all_cases": "SPR; Biacore X100; His-tagged ligand (~0.2 µM) captured on Ni-charged Sensor Chip NTA; Lon protein or domain injected at five dilutions; 25 °C, 30 µL/min; running buffer as printed 0.1 M HEPES, 1.5 M NaCl, 0.03 M EDTA, 0.5% v/v Surfactant P20; reference cell without nickel; 1:1 Langmuir fit", "conditions_in_all_cases": "both partners purified", "key": {"[1]": {"molecular_target": "T1, recombinant Escherichia coli Lon protease (aa 1-778) (E. coli, UniProt P0A9M0 1-778)", "T1 construct": "Lon protease, E. coli, UniProt P0A9M0, aa 1-778 as printed; Gene synthesised (GenScript) and cloned in a pASK-63 A+ vector (IBA); also called rLon; full-length Lon; source: E. coli BL21 (DE3), purified (Strep-Tactin Sepharose)"}, "[2]": {"molecular_target": "B1"}, "[3]": {"molecular_target": "T2, His-tagged full-length c-MYC (human, UniProt P01106-1 1-439)", "T2 construct": "c-MYC, human, full length; see the vendor's catalogue entry; source: bought: Cusabio, CSB-EP015270HU", "T2 sequence (P01106 16-454)": "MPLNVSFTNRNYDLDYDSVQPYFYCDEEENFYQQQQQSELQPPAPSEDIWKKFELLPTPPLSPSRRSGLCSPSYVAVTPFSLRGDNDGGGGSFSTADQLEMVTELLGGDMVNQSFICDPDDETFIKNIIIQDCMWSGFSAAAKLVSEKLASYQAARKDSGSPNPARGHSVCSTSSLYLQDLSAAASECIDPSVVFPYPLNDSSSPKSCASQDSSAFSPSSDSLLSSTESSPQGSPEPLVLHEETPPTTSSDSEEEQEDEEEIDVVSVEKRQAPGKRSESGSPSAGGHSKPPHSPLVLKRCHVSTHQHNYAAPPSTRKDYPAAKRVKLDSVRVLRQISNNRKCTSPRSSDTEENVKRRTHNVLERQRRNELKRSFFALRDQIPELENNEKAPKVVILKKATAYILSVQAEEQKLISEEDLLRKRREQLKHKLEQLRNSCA"}}}
{"binder": "B1", "values": [{"measurement": "binding result", "setting": "[1]", "value": "binds"}]}
{"binder": "Lon N-terminal domain peptide (aa 1-245) (domain or fragment, E. coli, UniProt P0A9M0 1-245, looked up, Lon protease, E. coli, UniProt P0A9M0, N-terminal domain, aa 1-245; also called NTD; NTD peptide; source: E. coli BL21 (DE3), purified (Strep-Tactin Sepharose)) MNPERSERIEIPVLPLRDVVVYPHMVIPLFVGREKSIRCLEAAMDHDKKIMLVAQKEASTDEPGVNDLFTVGTVASILQMLKLPDGTVKVLVEGLQRARISALSDNGEHFSAKAEYLESPTIDEREQEVLVRTAISQFEGYIKLNKKIPPEVLTSLNSIDDPARLADTIAAHMPLKLADKQSVLEMSDVNERLEYLMAMMESEIDLLQVEKRIRNRVKKQMEKSQREYYLNEQMKAIQKELGEMD", "values": [{"measurement": "Kd", "setting": "[2]", "value": "< 1000", "unit": "nM"}, {"measurement": "Kd", "setting": "[3]", "value": "< 1000", "unit": "nM"}]}
